Results published in paper doi:10.1101/2024.08.19.608659.

Molecular target: hATP5A1 pre-protein (F1-ATP synthase subunit alpha precursor) (Homo sapiens, UniProt P25705)
Experiment: EMSA

## CUUUCCGCUCGGCUGUUUUCCUGCGCAGGAGCCGCA (ssRNA) [RPL13 RNA ligand]
  binding result: binds
